Holding throughout (test): cell-based or functional assay
Experiment [1] has as its target T1, human FcγRIIa-H variant (Histidine at amino acid 131) (human, UniProt P12318 34-317).
T1 sequence (looked up): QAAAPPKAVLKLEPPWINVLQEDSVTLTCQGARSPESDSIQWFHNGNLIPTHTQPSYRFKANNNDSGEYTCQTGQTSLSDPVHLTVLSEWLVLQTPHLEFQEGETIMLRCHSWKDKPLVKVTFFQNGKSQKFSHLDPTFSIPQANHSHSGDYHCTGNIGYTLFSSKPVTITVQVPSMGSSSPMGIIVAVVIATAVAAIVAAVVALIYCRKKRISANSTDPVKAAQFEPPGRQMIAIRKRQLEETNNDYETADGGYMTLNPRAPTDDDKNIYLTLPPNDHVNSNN

The target in experiment [2] is T2, FcγRIIIa (UniProt P08637 17-254).
In experiment [3] the target is T1, human FcγRIIa-H variant (Histidine at …). The source holds these as a separate data set.
For experiment [4], the target named is T2, FcγRIIIa. This is another data set of the same source.

T2 sequence (P08637 17-254 F176V limits assumed): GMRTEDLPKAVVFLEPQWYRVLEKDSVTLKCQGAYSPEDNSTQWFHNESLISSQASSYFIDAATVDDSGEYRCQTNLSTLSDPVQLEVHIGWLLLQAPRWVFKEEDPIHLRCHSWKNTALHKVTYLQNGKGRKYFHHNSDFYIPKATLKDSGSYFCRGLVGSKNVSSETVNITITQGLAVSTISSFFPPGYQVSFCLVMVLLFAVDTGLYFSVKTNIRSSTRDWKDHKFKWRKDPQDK

B1: Fc-antigen binding domain construct 43 (CD20) (antibody, human IgG1, kappa)
heavy 1: QVQLVQSGAEVKKPGSSVKVSCKASGYAFSYSWINWVRQAPGQGLEWMGRIFPGDGDTDYNGKFKGRVTITADKSTSTAYMELSSLRSEDTAVYYCARNVFDGYWLVYWGQGTLVTVSSASTKGPSVFPLAPSSKSTSGGTAALGCLVKDYFPEPVTVSWNSGALTSGVHTFPAVLQSSGLYSLSSVVTVPSSSLGTQTYICNVNHKPSNTKVDKKVEPKSCDKTHTCPPCPAPELLGGPSVFLFPPKPKDTLMISRTPEVTCVVVDVSHEDPEVKFNWYVDGVEVHNAKTKPREEQYNSTYRVVSVLTVLHQDWLNGKEYKCKVSNKALPAPIEKTISKAKGQPREPQVYTLPPCRDKLTKNQVSLWCLVKGFYPSDIAVEWESNGQPENNYKTTPPVLDSDGSFFLYSKLTVDKSRWQQGNVFSCSVMHEALHNHYTQKSLSLSPGKGGGGGGGGGGGGGGGGGGGGDKTHTCPPCPAPELLGGPSVFLFPPKPKDTLMISRTPEVTCVVVDVSHEDPEVKFNWYVDGVEVHNAKTKPREEQYNSTYRVVSVLTVLHQDWLNGKEYKCKVSNKALPAPIEKTISKAKGQPREPQVYTLPPSRKELTKNQVSLTCLVKGFYPSDIAVEWESNGQPENNYKTTPPVLKSDGSFFLYSKLTVDKSRWQQGNVFSCSVMHEALHNHYTQKSLSLSPGQ
chain: not shown
heavy 2: not shown
light: DIVMTQTPLSLPVTPGEPASISCRSSKSLLHSNGITYLYWYLQKPGQSPQLLIYQMSNLVSGVPDRFSGSGSGTDFTLKISRVEAEDVGVYYCAQNLELPYTFGGGTKVEIKRTVAAPSVFIFPPSDEQLKSGTASVVCLLNNFYPREAKVQWKVDNALQSGNSQESVTEQDSKDSTYSLSSTLTLSKADYEKHKVYACEVTHQGLSSPVTKSFNRGEC
With B1, the “EC50 (nM) Mean, FcγRIIa signaling in ADCP reporter assay (Raji target cells, Jurkat/FcγRIIa-H effector cells, luciferase)” value in experiment [1] stood at 7.8 nM. Moreover, the “EC50 (nM) Mean, FcγRIIIa signaling in ADCC reporter assay (Raji target cells, Jurkat/FcγRIIIa effector cells, luciferase)” value with FcγRIIIa [2] worked out at 0.86 nM.

B2: Fc-antigen binding domain construct 44 (CD20) (antibody, human IgG1, kappa)
heavy 1: QVQLVQSGAEVKKPGSSVKVSCKASGYAFSYSWINWVRQAPGQGLEWMGRIFPGDGDTDYNGKFKGRVTITADKSTSTAYMELSSLRSEDTAVYYCARNVFDGYWLVYWGQGTLVTVSSASTKGPSVFPLAPSSKSTSGGTAALGCLVKDYFPEPVTVSWNSGALTSGVHTFPAVLQSSGLYSLSSVVTVPSSSLGTQTYICNVNHKPSNTKVDKKVEPKSCDKTHTCPPCPAPELLGGPSVFLFPPKPKDTLMISRTPEVTCVVVDVSHEDPEVKFNWYVDGVEVHNAKTKPREEQYNSTYRVVSVLTVLHQDWLNGKEYKCKVSNKALPAPIEKTISKAKGQPREPQVYTLPPCRDKLTKNQVSLWCLVKGFYPSDIAVEWESNGQPENNYKTTPPVLDSDGSFFLYSKLTVDKSRWQQGNVFSCSVMHEALHNHYTQKSLSLSPGKGGGGGGGGGGGGGGGGGGGGDKTHTCPPCPAPELLGGPSVFLFPPKPKDTLMISRTPEVTCVVVDVSHEDPEVKFNWYVDGVEVHNAKTKPREEQYNSTYRVVSVLTVLHQDWLNGKEYKCKVSNKALPAPIEKTISKAKGQPREPQVYTLPPSRKELTKNQVSLTCLVKGFYPSDIAVEWESNGQPENNYKTTPPVLKSDGSFFLYSKLTVDKSRWQQGNVFSCSVMHEALHNHYTQKSLSLSPGQKGGGGGGGGGGGGGGGGGGGGDKTHTCPPCPAPELLGGPSVFLFPPKPKDTLMISRTPEVTCVVVDVSHEDPEVKFNWYVDGVEVHNAKTKPREEQYNSTYRVVSVLTVLHQDWLNGKEYKCKVSNKALPAPIEKTISKAKGQPREPQVYTLPPSRKELTKNQVSLTCLVKGFYPSDIAVEWESNGQPENNYKTTPPVLKSDGSFFLYSKLTVDKSRWQQGNVFSCSVMHEALHNHYTQKSLSLSPGQ
chain: not shown
heavy 2: not shown
light: DIVMTQTPLSLPVTPGEPASISCRSSKSLLHSNGITYLYWYLQKPGQSPQLLIYQMSNLVSGVPDRFSGSGSGTDFTLKISRVEAEDVGVYYCAQNLELPYTFGGGTKVEIKRTVAAPSVFIFPPSDEQLKSGTASVVCLLNNFYPREAKVQWKVDNALQSGNSQESVTEQDSKDSTYSLSSTLTLSKADYEKHKVYACEVTHQGLSSPVTKSFNRGEC
In the case of B2, in experiment [1], the “EC50 (nM) Mean, FcγRIIa signaling in ADCP reporter assay (Raji target cells, Jurkat/FcγRIIa-H effector cells, luciferase)” value was determined as 0.17 nM. Also, the “EC50 (nM) Mean, FcγRIIIa signaling in ADCC reporter assay (Raji target cells, Jurkat/FcγRIIIa effector cells, luciferase)” value with FcγRIIIa [2] was found to be 0.055 nM.

B3: Fc-antigen binding domain construct 43 (PD-L1) (antibody, human IgG1, lambda)
heavy 1: not shown
chain: not shown
heavy 2: not shown
light: QSALTQPASVSGSPGQSITISCTGTSSDVGGYNYVSWYQQHPGKAPKLMIYDVSNRPSGVSNRFSGSKSGNTASLTISGLQAEDEADYYCSSYTSSSTRVFGTGTKVTVLGQPKANPTVTLFPPSSEELQANKATLVCLISDFYPGAVTVAWKADGSPVKAGVETTKPSKQSNNKYAASSYLSLTPEQWKSHRSYSCQVTHEGSTVEKTVAPTECS
Consider B3, for which the “EC50 (nM) Mean, FcγRIIa signaling in ADCP reporter assay (HEK-PD-L1 target cells, Jurkat/FcγRIIa-H effector cells, luciferase)” value in experiment [3] was 0.037 nM. For the same molecule, the “EC50 (nM) Mean, FcγRIIIa signaling in ADCC reporter assay (HEK-PD-L1 target cells, Jurkat/FcγRIIIa effector cells, luciferase)” value in the experiment with FcγRIIIa [4] was determined as 0.028 nM.

B4: Fc-antigen binding domain construct 44 (PD-L1) (antibody, human IgG1, lambda)
heavy 1: not shown
chain: not shown
heavy 2: not shown
light: QSALTQPASVSGSPGQSITISCTGTSSDVGGYNYVSWYQQHPGKAPKLMIYDVSNRPSGVSNRFSGSKSGNTASLTISGLQAEDEADYYCSSYTSSSTRVFGTGTKVTVLGQPKANPTVTLFPPSSEELQANKATLVCLISDFYPGAVTVAWKADGSPVKAGVETTKPSKQSNNKYAASSYLSLTPEQWKSHRSYSCQVTHEGSTVEKTVAPTECS
Turning to B4, in experiment [3], the “EC50 (nM) Mean, FcγRIIa signaling in ADCP reporter assay (HEK-PD-L1 target cells, Jurkat/FcγRIIa-H effector cells, luciferase)” value is 0.033 nM.

(Values after US20220267460A1 (MOMENTA PHARMACEUTICALS, published 2022).)
